The data set deals with T1, BMC09 (uncultured bacterium (metagenome)).
T1 chain: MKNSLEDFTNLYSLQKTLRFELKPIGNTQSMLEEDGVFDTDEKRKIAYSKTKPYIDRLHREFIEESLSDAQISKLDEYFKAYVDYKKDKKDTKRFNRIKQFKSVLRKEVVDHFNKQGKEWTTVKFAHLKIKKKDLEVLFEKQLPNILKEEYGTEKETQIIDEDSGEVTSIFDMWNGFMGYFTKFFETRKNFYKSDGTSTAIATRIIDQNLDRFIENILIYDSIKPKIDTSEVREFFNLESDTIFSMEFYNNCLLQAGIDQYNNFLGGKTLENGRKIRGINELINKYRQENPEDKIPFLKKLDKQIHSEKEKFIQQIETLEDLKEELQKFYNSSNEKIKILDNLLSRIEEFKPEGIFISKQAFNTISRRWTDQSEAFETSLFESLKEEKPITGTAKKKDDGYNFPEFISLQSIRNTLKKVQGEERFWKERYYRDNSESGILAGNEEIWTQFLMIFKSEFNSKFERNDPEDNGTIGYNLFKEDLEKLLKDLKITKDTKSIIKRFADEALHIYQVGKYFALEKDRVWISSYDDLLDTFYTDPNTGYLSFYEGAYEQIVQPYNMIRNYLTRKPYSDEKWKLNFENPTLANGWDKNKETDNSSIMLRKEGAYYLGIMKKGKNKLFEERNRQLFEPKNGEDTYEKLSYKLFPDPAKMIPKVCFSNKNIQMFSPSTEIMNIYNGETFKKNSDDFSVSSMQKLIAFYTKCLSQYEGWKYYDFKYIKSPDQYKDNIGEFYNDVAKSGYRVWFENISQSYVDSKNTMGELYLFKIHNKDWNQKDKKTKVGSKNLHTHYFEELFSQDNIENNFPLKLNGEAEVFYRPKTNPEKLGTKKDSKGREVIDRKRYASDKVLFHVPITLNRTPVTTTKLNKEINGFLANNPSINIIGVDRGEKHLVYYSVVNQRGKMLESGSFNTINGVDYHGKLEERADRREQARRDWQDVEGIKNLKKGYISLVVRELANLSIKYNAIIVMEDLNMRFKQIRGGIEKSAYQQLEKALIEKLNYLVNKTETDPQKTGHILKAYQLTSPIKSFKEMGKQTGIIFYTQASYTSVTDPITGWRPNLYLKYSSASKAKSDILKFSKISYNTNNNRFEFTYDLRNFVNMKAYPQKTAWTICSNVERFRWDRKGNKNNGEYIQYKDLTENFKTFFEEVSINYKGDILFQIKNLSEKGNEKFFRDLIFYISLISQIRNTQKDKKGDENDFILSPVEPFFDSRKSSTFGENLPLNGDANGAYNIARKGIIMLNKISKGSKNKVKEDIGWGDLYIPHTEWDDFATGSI
Nature of the data set: cell_activity; PAM not stated; E. coli depletion, 30 C. In short, it runs like this: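 E. coli carrying arabinose-induced (0.2%) BMC nuclease, grown at 30° C., made electrocompetent and electroporated with 50-100 ng plasmid carrying gRNA against malQ. Transformants plated on selective M9-glucose agar with kanamycin/ampicillin (± nourseothricin), and growth scored after 48 h at 30° C.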

B1: malQ gRNA (BMC stem-loop + 24 nt spacer) ; malQ protospacer (ssRNA ; dsDNA)
RNA: GAUUUCUACUAUUGUAGAUGUGGCGGUACGUUGAUGCAUCGCG
DNA 1: GTGGCGGTACGTTGATGCATCGCG
DNA 2: CGCGATGCATCAACGTACCGCCAC
As for B1, the activity is > 99.9 % colony reduction.

For the origin of these results see patent US20250277199, “NOVEL CRISPR-CAS NUCLEASES FROM METAGENOMES” (Brain Biotech AG, published 2025).
